From article PMC3812847 come the findings set out here.

The assay deals with T1, C-RapL (purified domain) (human).
T1 sequence (Q8WWW0 whole entry, looked up): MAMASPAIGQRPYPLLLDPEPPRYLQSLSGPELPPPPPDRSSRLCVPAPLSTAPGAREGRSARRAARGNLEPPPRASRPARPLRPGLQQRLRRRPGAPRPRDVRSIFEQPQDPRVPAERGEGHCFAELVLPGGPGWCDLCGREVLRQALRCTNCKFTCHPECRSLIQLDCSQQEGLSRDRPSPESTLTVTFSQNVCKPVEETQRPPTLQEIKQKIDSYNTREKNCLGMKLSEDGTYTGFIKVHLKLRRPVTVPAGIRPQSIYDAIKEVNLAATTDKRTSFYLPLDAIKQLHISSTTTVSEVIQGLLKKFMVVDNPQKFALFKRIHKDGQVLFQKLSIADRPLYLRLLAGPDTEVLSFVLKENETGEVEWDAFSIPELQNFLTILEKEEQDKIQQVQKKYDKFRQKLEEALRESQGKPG
As to the kind of experiment: ITC. (In general: Isothermal titration calorimetry measures the heat released or taken up as one component is titrated into another.)

The term Kd denotes the concentration at which binding is half-saturated. By stoichiometry N is commonly meant the number of molecules, sites or subunits per partner or assembly.

B1: N-SKAP1 (purified domain) (domain or fragment)
chain: MQAAALPEEIRWLLEDAEEFLAEGLRNENLSAVARDHRDHILRGFQQIKARYYWDFQPQGGDIGQDSSDDNHSGTLGLSLTSDAPFLSDYQDEGMEDIVKGAQE
B1: the Kd was 600 nM, the dH was -2.3 kcal/mol and the stoichiometry N stood at 0.85.
